Assay results published in US20240352140A1 (Janssen / Centocor, published 2024).

Columns and labels:
recombinant soluble BCMA = target: T1, recombinant soluble BCMA (Homo sapiens (Human), UniProt Q02223 1-54); assay: cell-based or functional assay
T1 sequence: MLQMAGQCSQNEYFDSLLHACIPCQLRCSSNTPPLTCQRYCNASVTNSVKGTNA

[1] = target: T2, cynomolgus monkey BCMA (as used in SPR) (cynomolgus monkey); assay: SPR; column printed 'Binding Affinity to BCMA (nM)', Cyno
T2 construct: also called cyno BCMA

B1: teclistamab (bispecific antibody, human IgG4 S228P, lambda, F234A L235A)
heavy 1: not shown
light 1: SYVLTQPPSVSVAPGQTARITCGGNNIGSKSVHWYQQPPGQAPVVVVYDDSDRPSGIPERFSGSNSGNTATLTISRVEAGDEAVYYCQVWDSSSDHVVFGGGTKLTVLGQPKAAPSVTLFPPSSEELQANKATLVCLISDFYPGAVTVAWKGDSSPVKAGVETTTPSKQSNNKYAASSYLSLTPEQWKSHRSYSCQVTHEGSTVEKTVAPTECS
heavy 2: EVQLVESGGGLVQPGGSLRLSCAASGFTFNTYAMNWVRQAPGKGLEWVARIRSKYNNYATYYAASVKGRFTISRDDSKNSLYLQMNSLKTEDTAVYYCARHGNFGNSYVSWFAYWGQGTLVTVSSASTKGPSVFPLAPCSRSTSESTAALGCLVKDYFPEPVTVSWNSGALTSGVHTFPAVLQSSGLYSLSSVVTVPSSSLGTKTYTCNVDHKPSNTKVDKRVESKYGPPCPPCPAPEAAGGPSVFLFPPKPKDTLMISRTPEVTCVVVDVSQEDPEVQFNWYVDGVEVHNAKTKPREEQFNSTYRVVSVLTVLHQDWLNGKEYKCKVSNKGLPSSIEKTISKAKGQPREPQVYTLPPSQEEMTKNQVSLTCLVKGFYPSDIAVEWESNGQPENNYKTTPPVLDSDGSFLLYSKLTVDKSRWQEGNVFSCSVMHEALHNHYTQKSLSLSLGK
light 2: QTVVTQEPSLTVSPGGTVTLTCRSSTGAVTTSNYANWVQQKPGQAPRGLIGGTNKRAPGTPARFSGSLLGGKAALTLSGVQPEDEAEYYCALWYSNLWVFGGGTKLTVLGQPKAAPSVTLFPPSSEELQANKATLVCLISDFYPGAVTVAWKADSSPVKAGVETTTPSKQSNNKYAASSYLSLTPEQWKSHRSYSCQVTHEGSTVEKTVAPTECS
notes: Humanized IgG4 proline, alanine, alanine (PAA)-based bispecific antibody with one BCMA arm (BCMB69) and one CD3 arm (CD3B219); also called JNJ-64007957; JNJ-957
- cytotoxicity assay with spiked recombinant sBCMA (167 nM), reduction in potency (recombinant soluble BCMA): 2 fold
- Kd [1]: 5.36 to 7.27 nM
